{"source": "paper PMC4790104", "about": "(Analytical chemistry, 2016)", "binders": {"B1": {"name": "Nup145C (natural protein, UniProt P49687 606-1317, looked up)", "chain": "SIWGLVNEEDAEIDEDDLSKQEDGGEQPLRKVRTLAQSKPSDKEVILKTDGTFGTLSGKDDSIVEEKAYEPDLSDADFEGIEASPKLDVSKDWVEQLILAGSSLRSVFATSKEFDGPCQNEIDLLFSECNDEIDNAKLIMKERRFTASYTFAKFSTGSMLLTKDIVGKSGVSIKRLPTELQRKFLFDDVYLDKEIEKVTIEARKSNPYPQISESSLLFKDALDYMEKTSSDYNLWKLSSILFDPVSYPYKTDNDQVKMALLKKERHCRLTSWIVSQIGPEIEEKIRNSSNEIEQIFLYLLLNDVVRASKLAIESKNGHLSVLISYLGSNDPRIRDLAELQLQKWSTGGCSIDKNISKIYKLLSGSPFEGLFSLKELESEFSWLCLLNLTLCYGQIDEYSLESLVQSHLDKFSLPYDDPIGVIFQLYAANENTEKLYKEVRQRTNALDVQFCWYLIQTLRFNGTRVFSKETSDEATFAFAAQLEFAQLHGHSLFVSCFLNDDKAAEDTIKRLVMREITLLRASTNDHILNRLKIPSQLIFNAQALKDRYEGNYLSEVQNLLLGSSYDLAEMAIVTSLGPRLLLSNNPVQNNELKTLREILNEFPDSERDKWSVSINVFEVYLKLVLDNVETQETIDSLISGMKIFYDQYKHCREVAACCNVMSQEIVSKILEKNNPSIGDSKAKLLELPLGQPEKAYLRGEFAQDLMKCTYKI"}, "B2": {"name": "Nup85 (natural protein, UniProt P46673 1-744, looked up)", "chain": "MTIDDSNRLLMDVDQFDFLDDGTAQLSNNKTDEEEQLYKRDPVSGAILVPMTVNDQPIEKNGDKMPLKFKLGPLSYQNMAFITAKDKYKLYPVRIPRLDTSKEFSAYVSGLFEIYRDLGDDRVFNVPTIGVVNSNFAKEHNATVNLAMEAILNELEVFIGRVKDQDGRVNRFYELEESLTVLNCLRTMYFILDGQDVEENRSEFIESLLNWINRSDGEPDEEYIEQVFSVKDSTAGKKVFETQYFWKLLNQLVLRGLLSQAIGCIERSDLLPYLSDTCAVSFDAVSDSIELLKQYPKDSSSTFREWKNLVLKLSQAFGSSATDISGELRDYIEDFLLVIGGNQRKILQYSRTWYESFCGFLLYYIPSLELSAEYLQMSLEANVVDITNDWEQPCVDIISGKIHSILPVMESLDSCTAAFTAMICEAKGLIENIFEGEKNSDDYSNEDNEMLEDLFSYRNGMASYMLNSFAFELCSLGDKELWPVAIGLIALSATGTRSAKKMVIAELLPHYPFVTNDDIEWMLSICVEWRLPEIAKEIYTTLGNQMLSAHNIIESIANFSRAGKYELVKSYSWLLFEASCMEGQKLDDPVLNAIVSKNSPAEDDVIIPQDILDCVVTNSMRQTLAPYAVLSQFYELRDREDWGQALRLLLLLIEFPYLPKHYLVLLVAKFLYPIFLLDDKKLMDEDSVATVIEVIETKWDDADEKSSNLYETIIEADKSLPSSMATLLKNLRKKLNFKLCQAFM"}, "B3": {"name": "Nup120 (natural protein, UniProt P35729 1-1037, looked up)", "chain": "MACLSRIDANLLQYYEKPEPNNTVDLYVSNNSNNNGLKEGDKSISTPVPQPYGSEYSNCLLLSNSEYICYHFSSRSTLLTFYPLSDAYHGKTINIHLPNASMNQRYTLTIQEVEQQLLVNVILKDGSFLTLQLPLSFLFSSANTLNGEWFHLQNPYDFTVRVPHFLFYVSPQFSVVFLEDGGLLGLKKVDGVHYEPLLFNDNSYLKSLTRFFSRSSKSDYDSVISCKLFHERYLIVLTQNCHLKIWDLTSFTLIQDYDMVSQSDSDPSHFRKVEAVGEYLSLYNNTLVTLLPLENGLFQMGTLLVDSSGILTYTFQNNIPTNLSASAIWSIVDLVLTRPLELNVEASYLNLIVLWKSGTASKLQILNVNDESFKNYEWIESVNKSLVDLQSEHDLDIVTKTGDVERGFCNLKSRYGTQIFERAQQILSENKIIMAHNEDEEYLANLETILRDVKTAFNEASSITLYGDEIILVNCFQPYNHSLYKLNTTVENWFYNMHSETDGSELFKYLRTLNGFASTLSNDVLRSISKKFLDIITGELPDSMTTVEKFTDIFKNCLENQFEITNLKILFDELNSFDIPVVLNDLINNQMKPGIFWKKDFISAIKFDGFTSIISLESLHQLLSIHYRITLQVLLTFVLFDLDTEIFGQHISTLLDLHYKQFLLLNLYRQDKCLLAEVLLKDSSEFSFGVKFFNYGQLIAYIDSLNSNVYNASITENSFFMTFFRSYIIENTSHKNIRFFLENVECPFYLRHNEVQEFMFAMTLFSCGNFDQSYEIFQLHDYPEAINDKLPTFLEDLKSENYHGDSIWKDLLCTFTVPYRHSAFYYQLSLLFDRNNSQEFALKCISKSAEYSLKEIQIEELQDFKEKQHIHYLNLLIHFRMFEEVLDVLRLGHECLSDTVRTNFLQLLLQEDIYSRDFFSTLLRLCNAHSDNGELYLRTVDIKIVDSILSQNLRSGDWECFKKLYCFRMLNKSERAAAEVLYQYILMQADLDVIRKRKCYLMVINVLSSFDSAYDQWILNGSKVVTLTDLRDELRGL"}}, "target": "Nup84-HRV-SpA (S. cerevisiae (endogenous in budding …, UniProt P52891 1-726))", "sequence (P52891 whole entry)": "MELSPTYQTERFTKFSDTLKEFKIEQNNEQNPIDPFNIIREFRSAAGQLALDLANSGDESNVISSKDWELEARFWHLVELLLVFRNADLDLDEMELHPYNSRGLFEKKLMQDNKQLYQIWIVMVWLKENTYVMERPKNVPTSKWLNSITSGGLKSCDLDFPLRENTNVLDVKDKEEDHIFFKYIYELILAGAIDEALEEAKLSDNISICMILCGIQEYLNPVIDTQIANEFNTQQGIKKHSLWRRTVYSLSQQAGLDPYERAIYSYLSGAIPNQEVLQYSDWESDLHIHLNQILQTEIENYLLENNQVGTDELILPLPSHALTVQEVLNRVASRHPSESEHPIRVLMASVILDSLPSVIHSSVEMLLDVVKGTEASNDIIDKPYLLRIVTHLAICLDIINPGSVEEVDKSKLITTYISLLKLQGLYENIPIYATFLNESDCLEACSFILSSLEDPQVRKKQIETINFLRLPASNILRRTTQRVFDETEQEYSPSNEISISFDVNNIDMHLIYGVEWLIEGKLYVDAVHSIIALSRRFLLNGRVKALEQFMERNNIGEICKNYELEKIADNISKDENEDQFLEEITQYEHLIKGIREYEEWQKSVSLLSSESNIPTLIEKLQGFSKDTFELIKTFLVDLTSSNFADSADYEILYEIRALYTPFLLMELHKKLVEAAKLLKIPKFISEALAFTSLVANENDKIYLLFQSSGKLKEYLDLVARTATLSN", "experiment": "native MS"}
{"binder": "B1", "values": [{"measurement": "stoichiometry N", "result": 1}]}
{"binder": "B2", "values": [{"measurement": "stoichiometry N", "result": 1}]}
{"binder": "B3", "values": [{"measurement": "stoichiometry N", "result": 1}]}
